Laboratory results reported in US20090304651A1 (published 2009).
Changes are numbered by the printed parent chain. Names and notes keep the numbering of the source. One block for each binder: values may come before it.

Experiments:
[1] = biological target: T1, recombinant human IGF-II (Insulin-like Growth Factor II) (human, UniProt P01344 25-91, biotinylated (Biotinyl-IGF-II, GroPep) where immobilised in SPR, site not stated; not biotinylated in ITC and as SPR analyte); test: SPR, IGF-II immobilised, steady state
T1 construct: also called IGF2; IGF-2
T1 sequence (P01344 25-91 limits assumed): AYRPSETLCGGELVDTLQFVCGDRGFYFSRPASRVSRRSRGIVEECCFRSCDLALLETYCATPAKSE
Protocol: (§1) Kinetic analysis by Surface Plasmon Resonance (SPR) was conducted on a BIAcore 3000 biosensor (BIAcore, Uppsala, Sweden) at 25° C. in HBS-EP (10 mM HEPES, pH 7.4, 150 mM NaCl, 3 mM EDTA, 0.005% surfactant P20) at a flow rate of 40 μl/min. […] Kinetic experiments consisted of a two minute injection of analyte followed by a 100 s dissociation phase in running buffer, after which the binding surface was regenerated with a 2 minute injection of 2 M MgCl₂. A blank flow cell was used for in-line reference subtraction of changes due to differences in refractive index of running buffer versus sample and a buffer-only injection was used to subtract instrument noise and drift. Injections were performed in duplicate for each concentration and in a randomised order. Kinetic parameters were determined by global fitting of sensorgrams to a two-state (conformational change) binding model using BIAevaluation software version 4.0.1. In all cases the minor component made an insignificant contribution to the overall affinity and as such only the kinetic parameters of the major binding component were used. For each interaction the dissociation affinity constant (KD) was also calculated by fitting of the response of each concentration at equilibrium to a steady-state affinity model using BIAevaluation. In order to investigate the influence of ionic strength, kinetic experiments were conducted in HBS-EP running buffers containing the desired NaCl concentration. In each case, analyte samples were made up in the appropriate running buffer prior to injection.
(§2) Following purification, the binding of each mutant construct to IGF2 was assessed by SPR and compared to the wild type domain 11. Sensorgrams were generated using biotinylated IGF2 immobilised to the cell surface and mutant domain 11 proteins as the free analyte (FIG. 4).

[2] = biological target: T1, recombinant human IGF-II (Insulin-like …); test: SPR, IGF-II immobilised, kinetic fit
Protocol: as §1

[3] = biological target: T1, recombinant human IGF-II (Insulin-like …); test: SPR, IGF-II immobilised, major kinetic parameters
Protocol: (§3) Kinetic experiments consisted of a two minute injection of analyte followed by a 100 s dissociation phase in running buffer, after which the binding surface was regenerated with a 2 minute injection of 2 M MgCl₂. A blank flow cell was used for in-line reference subtraction of changes due to differences in refractive index of running buffer versus sample and a buffer-only injection was used to subtract instrument noise and drift. Injections were performed in duplicate for each concentration and in a randomised order. Kinetic parameters were determined by global fitting of sensorgrams to a two-state (conformational change) binding model using BIAevaluation software version 4.0.1. In all cases the minor component made an insignificant contribution to the overall affinity and as such only the kinetic parameters of the major binding component were used. For each interaction the dissociation affinity constant (KD) was also calculated by fitting of the response of each concentration at equilibrium to a steady-state affinity model using BIAevaluation. […]
(§4) The affinity of versions of Fc-tagged domain 11 fusion proteins, and domain 11 constructs, for IGF-II were compared using surface plasmon resonance (BIAcore 3000). […] The Fc-tagged domain 11 kinetic data performed in triplicate generated sensorgrams that were analyzed using a bivalent analyte model.

[4] = biological target: T1, recombinant human IGF-II (Insulin-like …); test: SPR, steady-state KD relative to wild type
Protocol: […]. Values are the mean±S.E.M. of three separate experiments.
as §1
Following purification, the binding of each mutant construct to IGF2 was assessed by SPR and compared to the wild type domain 11.

[5] = biological target: T1, recombinant human IGF-II (Insulin-like …); test: SPR, IGF-II immobilised, major kinetic parameter ka1
Protocol: as §3, §4

[6] = biological target: T1, recombinant human IGF-II (Insulin-like …); test: SPR, IGF-II immobilised, major kinetic parameter kd1
Protocol: as §3, §4

[7] = biological target: T1, recombinant human IGF-II (Insulin-like …); test: SPR, IGF-II immobilised, steady state; remark: listed apart in the source
Protocol: as §1, with “In order to investigate the influence of ionic strength, kinetic experiments were conducted in HBS-EP running buffers containing the desired NaCl concentration. In each case, analyte samples were made up in the appropriate running buffer prior to injection.” left out

[8] = biological target: T1, recombinant human IGF-II (Insulin-like …); test: SPR, IGF-II immobilised, kinetic fit; remark: listed apart in the source
Protocol: as §1, §2

[9] = biological target: T1, recombinant human IGF-II (Insulin-like …); test: SPR

Kd [1]: 103 nM
Kd [2]: 102 nM
koff [2]: 0.053 s⁻¹
kon [2]: 525000 M⁻¹ s⁻¹
Kd [3]: 119 nM
Relative Affinity [4]: 1 fold (wild type = 1.00)
kon [5]: 662000 M⁻¹ s⁻¹
koff [6]: 0.0787 s⁻¹
Kd [7]: 103 nM
Kd [8]: 102 nM
koff [8]: 0.053 s⁻¹
kon [8]: 525000 M⁻¹ s⁻¹
B1: wild type IGF2R domain 11 (amino acids 1511-1650) with C-terminal His6 tag, from Pichia pastoris (receptor)
chain: NEHDDCQVTNPSTGHLFDLSSLSGRAGFTAAYSEKGLVYMSICGENENCPPGVGACFGQTRISVGKANKRLRYVDQVLQLVYKDGSPCPSKSGLSYKSVISFVCRPEAGPTNRPMLISLDKQTCTLFFSWHTPLACEQATHHHHHH
notes: also called WT; wild type domain 11

Kd [1]: 37 nM
Relative Affinity [4]: 2.79 fold (wild type = 1.00)
relative affinity increase over wild type [9]: ~2.5 fold
Kd [8]: 36 nM
koff [8]: 0.033 s⁻¹
kon [8]: 934000 M⁻¹ s⁻¹
B2: IGF2R domain 11 E1544A (amino acids 1511-1650, C-terminal His6 tag, from Pichia pastoris) (receptor)
chain: B1 chain with E34A

Kd [3]: 20.5 nM
kon [5]: 2.02e+06 M⁻¹ s⁻¹
koff [6]: 0.0406 s⁻¹
B3: IGF2R domain 11 E1544K (amino acids 1511-1650, C-terminal His6 tag, from Pichia pastoris) (receptor)
chain: B1 chain with E34K
notes: also called enhanced mutant
